B1: casirivimab (REGN10933) (antibody, V domains shown)
VH: QVQLVESGGGLVKPGGSLRLSCAASGFTFSDYYMSWIRQAPGKGLEWVSYITYSGSTIYYADSVKGRFTISRDNAKSSLYLQMNSLRAEDTAVYYCARDRGTTMVPFDYWGQGTLVTVSS
VL: DIQMTQSPSSLSASVGDRVTITCQASQDITNYLNWYQQKPGKAPKLLIYAASNLETGVPSRFSGSGSGTDFTFTISGLQPEDIATYYCQQYDNLPLTFGGGTKVEIK
B2: imdevimab (REGN10987) (antibody, V domains shown)
VH: QVQLVESGGGVVQPGRSLRLSCAASGFTFSNYAMYWVRQAPGKGLEWVAVISYDGSNKYYADSVKGRFTISRDNSKNTLYLQMNSLRTEDTAVYYCASGSDYGDYLLVYWGQGTLVTVSS
VL: QSALTQPASVSGSPGQSITISCTGTSSDVGGYNYVSWYQQHPGKAPKLMIYDVSKRPSGVSNRFSGSKSGNTASLTISGLQSEDEADYYCNSLTSISTWVFGGGTKLTVL

Target: SARS-CoV-2 Delta (B.1.617.2) spike protein RBD, His-tagged (SARS-CoV-2 Delta (B.1.617.2), UniProt P0DTC2)
Assay: SPR

| Binder | Kd [nM] | koff [s⁻¹] | kon [M⁻¹ s⁻¹] |
| --- | --- | --- | --- |
| B1 | 0.07 | 0.0002 | 2.9e+06 |
| B2 | 0.11 | 0.00028 | 2.6e+06 |

Source: paper PMC10215022 (mAbs, 2023)
